Consider 13 molecules from US20130251724A1 (GlaxoSmithKline, published 2013).

The target of assay [1] is T1, Human OSM (human, UniProt P13725 26-221).
T1 construct: Recombinant human OSM; also called hOSM; human Oncostatin M
T1 sequence: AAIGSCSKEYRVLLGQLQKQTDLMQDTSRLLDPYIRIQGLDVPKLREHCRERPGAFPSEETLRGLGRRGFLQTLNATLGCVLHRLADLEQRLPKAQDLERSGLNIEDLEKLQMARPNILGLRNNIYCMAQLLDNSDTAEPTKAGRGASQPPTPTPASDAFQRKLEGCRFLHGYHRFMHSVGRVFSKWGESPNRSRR
Kind of assay: SPR (ProteOn XPR36 or Biacore T100), captured supernatant, OSM as analyte; grey cell: 3x decrease in binding. How it is done: (§1) The initial kinetic analyses for the CDRH3 screen were carried out on the ProteOn XPR36 (Biorad Laboratories) and certain supernatants were selected for more accurate kinetic analysis on the BiaCore T100.
(§2) For the ProteOn analysis, anti-human IgG (GE Healthcare/Biacore BR-1008-39) was coupled to a GLM chip (Biorad Laboratories 176-5012) by primary amine coupling. The CDRH3 variants were captured directly on to this surface and recombinant human OSM was passed over the captured antibody surface at 256, 64, 16, 4 and 1 nM, with a buffer injection alone (i.e. 0 nM) used to double reference the binding curves. Following the OSM binding event, the capture surfaces were regenerated: with 3M MgCl₂ the regeneration removed the previously captured antibody ready for another cycle of capture and binding analysis. The data was then fitted to the 1:1 model (with mass transport) inherent to the ProteOn analysis software. The run was carried out using HBS-EP (Biacore/GE-Healthcare BR-1006-69) and the analysis temperature was 25° C.
(§3) A similar method was used for analysis of constructs using the Biacore T100, anti-human IgG (GE Healthcare/Biacore BR-1008-39) was coupled to a CM5 chip (GE Healthcare/Biacore BR-1006-68) by primary amine coupling, antibodies were captured on this surface and recombinant human OSM was passed over the captured antibody surface at 256, 64, 16, 4 and 1 nM, with a buffer injection alone (i.e. 0 nM) used to double reference the binding curves. Regeneration was by using pulses of 3M 3M MgCl₂ or 100 mM phosphoric acid or using both reagents. The data was fitted to the 1:1 model inherent to the Biacore T100 analysis software. The run was carried out using HBS-EP (Biacore/GE-Healthcare BR-1006-69) and the analysis temperature was 25° C.

In assay [2] the target is T1, Human OSM. The assay can be described thus: BIAcore kinetics, purified antibody. In general terms: Surface plasmon resonance follows binding to a sensor surface in real time, without labels.
For assay [3], the target named is T2, Cynomolgus OSM (cynomolgus, UniProt A0A2K5VPC6 26-221).
T2 construct: also called Cyno OSM; cynomolgus macaque OSM
T2 sequence: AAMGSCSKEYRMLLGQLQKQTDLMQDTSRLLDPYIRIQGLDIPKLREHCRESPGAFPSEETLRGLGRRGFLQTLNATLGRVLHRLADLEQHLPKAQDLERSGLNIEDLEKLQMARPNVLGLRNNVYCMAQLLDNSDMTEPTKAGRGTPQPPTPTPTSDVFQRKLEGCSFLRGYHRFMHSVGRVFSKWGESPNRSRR
The assay can be described thus: BIAcore kinetics, purified antibody.

The target of assay [4] is T1, Human OSM. Kind of assay: BIAcore kinetics, transfection supernatant.
Assay [5] deals with T1, Human OSM. The assay can be described thus: cell-based or functional assay.
Assay [6] has as its target T2, Cynomolgus OSM. Kind of assay: cell-based or functional assay.
Assay [7] addresses T1, Human OSM. The assay can be described thus: SPR (ProteOn XPR36 or Biacore T100), captured supernatant, OSM as analyte [continued]. As for the experimental part: as §1, §2, §3

Several values for one entry are separate records, joined by “and”; a condition that tells them apart may be missing. Equal values may be shown once.

B1: Pos 100 Ala (antibody, V domains shown)
VH: EVQLVESGGGLVQPGGSLRLSCAASGFTFSSYAMSWVRQAPGKGLEWVATISDGGSFTYYLDNVRGRFTISRDNAKNSLYLQMNSLRAEDTAVYYCARDVGHTAFWYFDVWGRGTLVTVSS
VL: DIVMTQSPDSLAVSLGERATINCRASKSVSAAGYNFMHWYQQKPGQPPKVLIYYASNLESGVPDRFSGSGSGTDFTLTISSLQAEDVAVYYCLHSREFPFTFGGGTKVEIKR
notes: also called CDRH3 T100>A
As usually defined, the Kd is a measure of binding affinity in units of concentration. B1 gave a dissociation constant (Kd) in assay [1] of 8.55 nM.

B2: Pos 100B Gln (antibody, V domains shown)
VH: EVQLVESGGGLVQPGGSLRLSCAASGFTFSSYAMSWVRQAPGKGLEWVATISDGGSFTYYLDNVRGRFTISRDNAKNSLYLQMNSLRAEDTAVYYCARDVGHTTFQYFDVWGRGTLVTVSS
VL: DIVMTQSPDSLAVSLGERATINCRASKSVSAAGYNFMHWYQQKPGQPPKVLIYYASNLESGVPDRFSGSGSGTDFTLTISSLQAEDVAVYYCLHSREFPFTFGGGTKVEIKR
notes: also called CDRH3 W100B>Q
Regarding B2, in assay [1], the dissociation constant (Kd) worked out at 3.35 nM.

B3: Humanised 10G8 H0L4 (antibody, V domains shown)
VH: EVQLVESGGGLVQPGGSLRLSCAASGFTFSNYAMSWVRQAPGKGLEWVATISDGGSFTYYLDNVRGRFTISRDNAKNSLYLQMNSLRAEDTAVYYCARDVGHTTFWYFDVWGRGTLVTVSS
VL: DIVMTQSPDSLAVSLGERATINCRASKSVSAAGYNFMHWYQQKPGQPPKVLIYYASNLESGVPDRFSGSGSGTDFTLTISSLQAEDVVVYYCLHSREFPFTFGGGTNVEIK
As usually defined, the koff is the first-order rate constant of dissociation. As usually defined, the kon is the rate constant with which the complex forms. Low values mean slow association, high ones fast association. As to B3, the Kd in assay [2] came out at 0.374 nM; in assay [3], 0.242 nM; in assay [4], 0.268 nM. In addition, the koff was found to be 0.00014 s⁻¹ in assay [2], 0.000101 s⁻¹ in assay [3] and 0.000111 s⁻¹ in assay [4]. Besides, the kon is 374000 M⁻¹ s⁻¹ in assay [2], 418000 M⁻¹ s⁻¹ in assay [3] and 413000 M⁻¹ s⁻¹ in assay [4]. Also, the “KB cell neutralisation assay, mean IC50” value in assay [5] was 0.018 µg/ml and 118 pM; in assay [6], 0.012 µg/ml and 49 pM.

B4: Pos 102 Ser (antibody, V domains shown)
VH: EVQLVESGGGLVQPGGSLRLSCAASGFTFSSYAMSWVRQAPGKGLEWVATISDGGSFTYYLDNVRGRFTISRDNAKNSLYLQMNSLRAEDTAVYYCARDVGHTTFWYFDSWGRGTLVTVSS
VL: DIVMTQSPDSLAVSLGERATINCRASKSVSAAGYNFMHWYQQKPGQPPKVLIYYASNLESGVPDRFSGSGSGTDFTLTISSLQAEDVAVYYCLHSREFPFTFGGGTKVEIKR
notes: also called CDRH3 V102>S
In assay [7], B4 displayed an equilibrium dissociation constant (Kd) of 0.444 nM.

B5: Pos 101 Ala (antibody, V domains shown)
VH: EVQLVESGGGLVQPGGSLRLSCAASGFTFSSYAMSWVRQAPGKGLEWVATISDGGSFTYYLDNVRGRFTISRDNAKNSLYLQMNSLRAEDTAVYYCARDVGHTTFWYFAVWGRGTLVTVSS
VL: DIVMTQSPDSLAVSLGERATINCRASKSVSAAGYNFMHWYQQKPGQPPKVLIYYASNLESGVPDRFSGSGSGTDFTLTISSLQAEDVAVYYCLHSREFPFTFGGGTKVEIKR
notes: also called CDRH3 D101>A
With B5, the Kd in assay [1] came to 1.55 nM.

B6: Humanised 10G8 H1L4 (antibody, V domains shown)
VH: EMQLVESGGGLVQPGGSLRLSCAASGFTFSNYAMSWVRQAPGKGLEWVATISDGGSFTYYLDNVRGRFTISRDNAKNSLYLQMNSLRAEDTAVYYCARDVGHTTFWYFDVWGRGTLVTVSS
VL: DIVMTQSPDSLAVSLGERATINCRASKSVSAAGYNFMHWYQQKPGQPPKVLIYYASNLESGVPDRFSGSGSGTDFTLTISSLQAEDVVVYYCLHSREFPFTFGGGTNVEIK
As to B6, the results for the equilibrium dissociation constant (Kd) in assay [2], in assay [3] and in assay [4] were 0.37 nM, 0.264 nM and 0.344 nM, respectively. For the same molecule, the koff in assay [2] worked out at 0.000135 s⁻¹; in assay [3], 0.000111 s⁻¹; in assay [4], 0.00013 s⁻¹. Moreover, the kon in assay [2] is 365000 M⁻¹ s⁻¹; in assay [3], 421000 M⁻¹ s⁻¹; in assay [4] it was 377000 M⁻¹ s⁻¹. Moreover, the “KB cell neutralisation assay, mean IC50” value in assay [5] is 0.016 µg/ml and 107 pM; in assay [6], 0.011 µg/ml and 10 pM.

B7: Pos 100C Leu (antibody, V domains shown)
VH: EVQLVESGGGLVQPGGSLRLSCAASGFTFSSYAMSWVRQAPGKGLEWVATISDGGSFTYYLDNVRGRFTISRDNAKNSLYLQMNSLRAEDTAVYYCARDVGHTTFWLFDVWGRGTLVTVSS
VL: DIVMTQSPDSLAVSLGERATINCRASKSVSAAGYNFMHWYQQKPGQPPKVLIYYASNLESGVPDRFSGSGSGTDFTLTISSLQAEDVAVYYCLHSREFPFTFGGGTKVEIKR
notes: also called CDRH3 Y100C>L
B7 displayed a dissociation constant (Kd) in assay [1] of 0.424 nM.

B8: Pos 100A His (antibody, V domains shown)
VH: EVQLVESGGGLVQPGGSLRLSCAASGFTFSSYAMSWVRQAPGKGLEWVATISDGGSFTYYLDNVRGRFTISRDNAKNSLYLQMNSLRAEDTAVYYCARDVGHTTHWYFDVWGRGTLVTVSS
VL: DIVMTQSPDSLAVSLGERATINCRASKSVSAAGYNFMHWYQQKPGQPPKVLIYYASNLESGVPDRFSGSGSGTDFTLTISSLQAEDVAVYYCLHSREFPFTFGGGTKVEIKR
notes: also called CDRH3 F100A>H
B8 displayed a Kd in assay [1] of 39.7 nM.

B9: Pos 100C Gln (antibody, V domains shown)
VH: EVQLVESGGGLVQPGGSLRLSCAASGFTFSSYAMSWVRQAPGKGLEWVATISDGGSFTYYLDNVRGRFTISRDNAKNSLYLQMNSLRAEDTAVYYCARDVGHTTFWQFDVWGRGTLVTVSS
VL: DIVMTQSPDSLAVSLGERATINCRASKSVSAAGYNFMHWYQQKPGQPPKVLIYYASNLESGVPDRFSGSGSGTDFTLTISSLQAEDVAVYYCLHSREFPFTFGGGTKVEIKR
notes: also called CDRH3 Y100C>Q
As to B9, in assay [1], the Kd was 1.17 nM.

B10: Humanised 10G8 H2L1 (antibody, V domains shown)
VH: EVQLVESGGGLVQPGGSLRLSCAASGFTFSNYAMSWVRQAPGKGLEWVATISDGGSFTYYLDNVRGRFTISRDNAKNSLYLQMNSLRAEDTAVYYCARDVGHTTFWYFDVWGSGTLVTVSS
VL: DIVMTQSPDSLAVSLGERATINCRASKSVSAAGYNFMHWYQQKPGQPPKVLIYYASNLESGVPDRFSGSGSGTDFTLTISSLQAEDVAVYYCLHSREFPFTFGGGTKVEIK
On to B10, for which the equilibrium dissociation constant (Kd) came out at 0.365 nM in assay [2], 0.299 nM in assay [3] and 0.286 nM in assay [4]. Moreover, the koff in assay [2] is 0.00014 s⁻¹; in assay [3] it was 0.000124 s⁻¹; in assay [4], 0.000113 s⁻¹. For the same molecule, the kon in assay [2] amounted to 383000 M⁻¹ s⁻¹; in assay [3], 414000 M⁻¹ s⁻¹; in assay [4] it was 394000 M⁻¹ s⁻¹. Besides, the “KB cell neutralisation assay, mean IC50” value in assay [5] is 0.014 µg/ml and 93 pM; in assay [6] it was 0.013 µg/ml and 14 pM.

B11: Pos 100A Met (antibody, V domains shown)
VH: EVQLVESGGGLVQPGGSLRLSCAASGFTFSSYAMSWVRQAPGKGLEWVATISDGGSFTYYLDNVRGRFTISRDNAKNSLYLQMNSLRAEDTAVYYCARDVGHTTMWYFDVWGRGTLVTVSS
VL: DIVMTQSPDSLAVSLGERATINCRASKSVSAAGYNFMHWYQQKPGQPPKVLIYYASNLESGVPDRFSGSGSGTDFTLTISSLQAEDVAVYYCLHSREFPFTFGGGTKVEIKR
notes: also called CDRH3 F100A>M
Turning to B11, in assay [1], the equilibrium dissociation constant (Kd) was 5.19 nM.

B12: Pos 100A Gln (antibody, V domains shown)
VH: EVQLVESGGGLVQPGGSLRLSCAASGFTFSSYAMSWVRQAPGKGLEWVATISDGGSFTYYLDNVRGRFTISRDNAKNSLYLQMNSLRAEDTAVYYCARDVGHTTQWYFDVWGRGTLVTVSS
VL: DIVMTQSPDSLAVSLGERATINCRASKSVSAAGYNFMHWYQQKPGQPPKVLIYYASNLESGVPDRFSGSGSGTDFTLTISSLQAEDVAVYYCLHSREFPFTFGGGTKVEIKR
notes: also called CDRH3 F100A>Q
Consider B12, for which the Kd in assay [1] was found to be 14.6 nM.

B13: Pos 101 Gln (antibody, V domains shown)
VH: EVQLVESGGGLVQPGGSLRLSCAASGFTFSSYAMSWVRQAPGKGLEWVATISDGGSFTYYLDNVRGRFTISRDNAKNSLYLQMNSLRAEDTAVYYCARDVGHTTFWYFQVWGRGTLVTVSS
VL: DIVMTQSPDSLAVSLGERATINCRASKSVSAAGYNFMHWYQQKPGQPPKVLIYYASNLESGVPDRFSGSGSGTDFTLTISSLQAEDVAVYYCLHSREFPFTFGGGTKVEIKR
notes: also called CDRH3 D101>Q
In turn, B13 had an equilibrium dissociation constant (Kd) in assay [1] of 1.1 nM.
